Data on one protein can be found in PMC5952258 (ACS Infectious Diseases, 2018).

This data set concerns the molecule itself. Put plainly: crystal structure; sitting drop vapor diffusion at 18 °C; 25% (w/v) PEG 3350, 0.1 M Bis-Tris pH 5.6, 0.1 M ammonium sulfate; resolved to 2.0 Å.

B1: Rv2466c C22S mutant (enzyme)
chain: not shown
For B1, the binding result is recorded as “binds”.
